T1: GST-TIS7 (TPA Induced Sequence 7) (mouse, UniProt P19182 1-449)
T1 sequence: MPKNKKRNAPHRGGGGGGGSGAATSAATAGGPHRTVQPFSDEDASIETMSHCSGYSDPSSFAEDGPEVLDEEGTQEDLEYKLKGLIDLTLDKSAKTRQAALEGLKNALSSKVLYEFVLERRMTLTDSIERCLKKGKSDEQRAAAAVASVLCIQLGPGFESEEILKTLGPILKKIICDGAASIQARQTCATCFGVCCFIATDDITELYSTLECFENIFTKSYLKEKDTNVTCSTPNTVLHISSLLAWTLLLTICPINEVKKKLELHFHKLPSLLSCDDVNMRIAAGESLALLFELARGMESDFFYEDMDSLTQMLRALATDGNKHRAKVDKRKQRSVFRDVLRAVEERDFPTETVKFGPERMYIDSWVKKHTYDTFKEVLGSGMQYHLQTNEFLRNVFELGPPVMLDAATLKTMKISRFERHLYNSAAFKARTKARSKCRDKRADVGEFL

B1: ICln promoter minimal essential region (-154/-113), EMSA probe (dsDNA)
DNA 1: TAGAATGTCTCATCTCTATGGTCGACGGCGTTCAGATTCCG
DNA 2: CGGAATCTGAACGCCGTCGACCATAGAGATGAGACATTCTA
B2: ICln promoter minimal essential region (-154/-113), SPR (dsDNA)
DNA 1: TAGAATGTCTCATCTCTATGGTCGACGGCGTTCAGATTCCG
DNA 2: CGGAATCTGAACGCCGTCGACCATAGAGATGAGACATTCTA

Legend:
[1] = biological target: T1, GST-TIS7 (TPA Induced Sequence 7); experiment: EMSA; blocked by 20-fold excess of unlabelled oligonucleotide; supershifted by TIS7 antibody; EMSA: 1 ug probe, 10 min, 5% native PAGE (50 mM Tris pH 7.5, 0.38 M glycine, 2 mM EDTA; run in TBE), binding buffer not stated; SPR: Biacore X100, SA chip, oligos annealed in 30 mM Na3PO4, 200 mM NaCl, 1 mM DTT pH 7.2, protein dialyzed in 50 mM Tris pH 7.4, 150 mM NaCl; running buffer and temperature not stated; details: protein: recombinant; tags: N-terminal GST; blunt
[2] = biological target: T1, GST-TIS7 (TPA Induced Sequence 7); experiment: SPR; Kd value printed only in Fig. 4d; 10-fold difference in Kd between native and scrambled sequence; EMSA: 1 ug probe, 10 min, 5% native PAGE (50 mM Tris pH 7.5, 0.38 M glycine, 2 mM EDTA; run in TBE), binding buffer not stated; SPR: Biacore X100, SA chip, oligos annealed in 30 mM Na3PO4, 200 mM NaCl, 1 mM DTT pH 7.2, protein dialyzed in 50 mM Tris pH 7.4, 150 mM NaCl; running buffer and temperature not stated; details: protein: recombinant; tags: N-terminal GST; label: 5'-biotin on sense strand; blunt

Binder | binding result [1] | binding result [2]
B1 | binds | –
B2 | – | binds

Reference: article PMC5080701, “TIS7 induces transcriptional cascade of methylosome components required for muscle differentiation”
